According to patent US20260049151A1 (SHENGHE CHINA BIOPHARMACEUTICAL, published 2026):

Biological target: T1, Human-TNFR2-His (human, UniProt P20333 23-257)
T1 construct: Bought protein; also called human TNFR2 protein; TNFR2 protein; not shown: His tag
T1 sequence (looked up): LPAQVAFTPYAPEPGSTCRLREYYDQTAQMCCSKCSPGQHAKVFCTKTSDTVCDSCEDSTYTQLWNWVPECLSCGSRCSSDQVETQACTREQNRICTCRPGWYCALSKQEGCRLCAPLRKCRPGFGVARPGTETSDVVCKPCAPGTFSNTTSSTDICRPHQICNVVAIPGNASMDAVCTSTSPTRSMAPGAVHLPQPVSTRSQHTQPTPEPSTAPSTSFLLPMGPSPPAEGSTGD
Assay: ELISA: Human-TNFR2-His coated (0.1 ug/mL), antibody titrated, goat anti-human IgG Fc detection (Example 2)
Method: Human-TNFR2-His (manufacturer: SINO, CAT: 10417-H08H, LOT: LC15NO0412) was diluted to 0.1 μg/mL with a coating solution (1×PBS, pH7.4), and coated in 96-well ELISA plate at 100 µL/well overnight at 4° C. The coating solution was poured off. Each well was washed with 1×PBST at 300 μL, washed 4 times with a plate washer, and patted dry on a flat paper. It was blocked with 3% skim milk powder at 300 μL/well, and incubated at 37° C. for 1 h. The blocking solution was poured off, washed 4 times with a plate washer, and patted dry on a flat paper. Negative control and positive control were set up. […] The positive control and antibody were diluted to 10 μg/mL with 3% skim milk powder as the starting concentration, and then diluted by 3-fold gradient (11 gradients in total), and a blank well was set up and only the diluent was added. It was incubated at 37° C. for 1 h at 100 μL/well. The liquid in the well was discarded, washed 4 times with a plate washer, and patted dry on a flat paper. Goat anti-human IgG Fc was diluted with 3% skim milk powder at 1:10000, and incubated at 37° C. for 1 h at 100 μL/well. It was washed 6 times with a plate washer, and patted dry on a flat paper. TMB color developing solution was added at 100 μL/well, and wrapped with aluminum foil. Color development was performed at 37° C. in the dark for 8 min. Termination solution 1M HCl was added to terminate the color development reaction at 100 μL/well. Readings were taken at 450 nm on an ELISA reader.

EC50 (read off the curve): ~0.09 nM
B1: Antibody E1 (bispecific antibody, human IgG1, kappa)
light: DIVMTQSPATLSVSPGERATLSCKASQNVGSNVDWYQQKPGQSPRVLIYKASIRYTGIPARFSGSGSGTEFTLTISILQSEDFAVYFCMQSKSYPITFGQGTKLEIKRTVAAPSVFIFPPSDEQLKSGTASVVCLLNNFYPREAKVQWKVDNALQSGNSQESVTEQDSKDSTYSLSSTLTLSKADYEKHKVYACEVTHQGLSSPVTKSFNRGEC
heavy: not shown
notes: IgG1 subtype; full-length TNFR2 antibody with 4-1BB scFv at the C-terminus of the heavy chains
